Experimental data from the supplement of paper PMC9170038.

Tested on: MS2 coat protein
Test: apparent KD of MS2 coat protein; designed switch direction (-1 OFF switch, 1 ON switch): -1; higher = weaker reporter binding
Summary of the method: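 Stalled E. coli RNA polymerase transcribed designed RNA switches on Illumina chips, which were then titrated with SNAP-549-labelled MS2 coat protein, doubling from 0.7 or 1.5 nM to 3 µM. Steps lasted from 0.8–1.5 h at the lowest concentration to 10–20 min at the highest. The apparent KD is each design's median over clusters of curve-fitted normalised fluorescence.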

[1] = Eterna round: R95, input ligand: FMN 200 uM
[2] = Eterna round: R95, input ligand: microRNA oligo, concentration not stated
[3] = Eterna round: R95, input ligand: none
[4] = input ligand: microRNA oligo, concentration not stated

Sequence | apparent KD of MS2 coat protein (input ligand: FMN 200 uM) | apparent KD of MS2 coat protein (input ligand: none) | apparent KD of MS2 coat protein [2] | further results
AAUAAAGUAGGAUAUACAUGAGGAUCACCCAUGUCCCACCCGUUACCUAUGACCAUAUGUAGAAGGACUAAUAA [Exy#3] (Eterna round: R97, puzzle: Exclusion 3) | 80 nM | 59.1 nM |  | 
AAUAACAAGCUGAUCCUUCACAUGAGGAUCACCCAUGUGCUCGUCUUGUAAAGUACUAUCACGAAAGUGAUAGUACA (Eterna round: R97, puzzle: Sensor, turn-off variant 1) | 127 nM | 125 nM |  | 
AAUAACAGAGGAUAUACUAUUUUAUGUAUUUAUUAUUUUAAACAUGAGGAUCACCCAUGUAGAAGGCUGAAUGA [JMF 54] (puzzle: Exclusion 2) |  |  | 21.6 nM | apparent KD of MS2 coat protein [1]: 20.6 nM; apparent KD of MS2 coat protein [3]: 21.5 nM
AAUAACAGAGGAUAUACUAUUUUAUGUGUUUGUUGUUUUGAACAUGAGGAUCACCCAUGUAGAAGGCUGAAUAA [JMF 26] (puzzle: Exclusion 2) |  |  | 22.1 nM | 
AAUAACAGAGGAUAUACUGUUUUAUGUGUUUGUUGUUUUAAACAUGAGGAUCACCCAUGUAGAAGGCUGAAUGA [JMF 60] (puzzle: Exclusion 2) |  |  | 21.8 nM | 
AAUAAGCGAGGAUAUACACCCGGUAACCGGGAACGGGCGAGACAUGAGGAUCACCCAUGUAGAAGGCGCGUCAA [Ralaente] (Eterna round: R97, puzzle: Exclusion 2) | 182 nM | 161 nM |  | 
AAUAAUAAACAAGCUUUUUACAUGAGGAUCACCCAUGUCCUCUGCUCGUCUUAUCUUGGGCUUUUUUUGGGUUCGGG [-16.4, -45 kcal, A 21%] (Eterna round: R97, puzzle: Sensor, turn-off variant 1) | 813 nM | 891 nM |  | 
AAUAAUGAGAAGGAUAUCACUAGCGAUAGCUAGUGAGAAGGUCUCACAUGAGGAUCACCCAUGUGUUCCAAUAA [Mod1 Ex6/6-A4 by Brourd] (Eterna round: R97, puzzle: Exclusion 6) | 417 nM | 221 nM |  | 
AAUAUGUGAGGAUAUCAGGUGUGCUAGCGUACUGGUACAUCUGAGAAGGCACAUGAGGAUCACCCAUGUAUCUU [Mat - Exclusion 4 - Mod of JL - D45] (puzzle: Exclusion 4) |  |  | 24.3 nM | 
AAUAUUAGAGGAUAUGCACUUGCACUAACGAAAUCCUCACCACAUGAGGAUCACCCAUGUAGAAGGCUGGUGGU [Eternabot (L2) Solution 65] (Eterna round: R97, puzzle: Exclusion 2) | 354 nM | 487 nM |  | 
AAUGAGCUAGGAUAUACAUGAGGAUCACCCAUGUAAAAUAGGUCAUGGAGGAACCACUGUAGAAGGAGCAGGGC [Zagereti] (puzzle: Exclusion 3) |  |  | 47.1 nM | 
AAUGAUUGACGAGGAUAUUGUGGUAAAACACGACGAGAAGGCGUCUGUCACAUGAGGAUCACCCAUGUGAGCUUUGUGGAUAGA [Ex NG1 #72] (Eterna round: R96, puzzle: Exclusion NG 1) | 52.3 nM | 59.8 nM |  | apparent KD of MS2 coat protein [4]: 33.6 nM
AAUGCGGACAAAGGAUAUUGCGGUGACCGGCUCGGCGUACCGAGCCUACAUGAGGAUCACCCAUGUAAGAAGGUUGUCGCAAAA [Mat - Exclusion NG 2 - Mod of JL - D75] (Eterna round: R96, puzzle: Exclusion NG 2) | 16.6 nM | 17.5 nM |  | apparent KD of MS2 coat protein [4]: 13.8 nM
AAUUAGUGAGGAUAUACUAACAGUGGUAGUAGAUAGUGGAUGUAGAAGGCACAUGAGGAUCACCCAUGUUAUAA [EX4 #52] (Eterna round: R97, puzzle: Exclusion 4) | 26 nM | 43.7 nM |  | 
AAUUAUUGAUGAGGAUAUUGUGGUGAAACACGACAAGAAGGCAUUAUACACAUGAGGAUCACCCAUGUGAGCCUGAUGCAUAUA [Ex NG1 #59] (Eterna round: R96, puzzle: Exclusion NG 1) |  |  |  | apparent KD of MS2 coat protein [4]: 12.4 nM
AAUUAUUUUUGAGGAUAUUGUGGUGAAACACCACAAGAAGGCAAGAUACACAUGAGGAUCACCCAUGUGAGCCUGAUGCUUAUG [Ex NG1 #53] (Eterna round: R96, puzzle: Exclusion NG 1) |  |  |  | apparent KD of MS2 coat protein [4]: 13.1 nM
AAUUCACAUGAGGAUCACCCAUGUCAGGAUAUGGUUUCACGGGUUUCGGUGCGUGAGGCCAGAAGGGACAGCUA (puzzle: Exclusion 1) |  |  | 51.5 nM | 
AAUUUACAUGAGGAUCACCCAUGUGAGGAUAUGGUUUCGCUGGCCGUAGCCAGUGGAACCAGAAGGCGCAUGAU [Mat - Exclusion 1 - JL Mod - D12] (Eterna round: R97, puzzle: Exclusion 1) | 283 nM | 65.2 nM |  | 
AAUUUUUAUGUAAGGAUAUGGGUUUGGAAACGGGCUUAGAAGGUACAUGAGGAUCACCCAUGUAUAAUGUGCGU [-19.9, -19.7 kcal, 30% A] (Eterna round: R97, puzzle: Brourd's mod of Exclusion 4) | 19 nM | 18.3 nM |  | 
ACAAAUCAUGUAGGAUAUGCGUGGCGAAGCUAUGCAGAAGGACAUGAGGAUCACCCAUGUGCUUCCGUCUGCGUACAGACGGUA [Mat - Exclusion NG 1 - Mod of JL - D16] (Eterna round: R96, puzzle: Exclusion NG 1) | 75.3 nM | 91.5 nM |  | apparent KD of MS2 coat protein [4]: 64.6 nM
ACAAGCAUUUAUAUUUUAAAAUUUUAUCGUCUUAUAAUUACAUGAGGAUCACCCAUGUAUAAAGGGUGAAUAAUAAU [JR_Sensorv2_tov2_Sub550] (Eterna round: R96, puzzle: Sensor v2, turn-off variant 2) | 93.9 nM | 91.8 nM |  | apparent KD of MS2 coat protein [4]: 203 nM
ACAAGCUAUAUGCUCGGUUACAUGAGGAUCACCCAUGUACUCAUGUUCUUAUGUACUGACACGAAAGUGUUAGUAAU [AK-miRNA-r3-1] (Eterna round: R97, puzzle: Sensor, turn-off variant 1) | 110 nM | 122 nM |  | 
ACAAGCUUAAUCAGUAUGAACAUGAGGAUCACCCAUGUAAAAGGGAAUACUAUUGGGUUUUUUAAAGCUCGUCUUAU [JR_STOV1_Sub017] (Eterna round: R97, puzzle: Sensor, turn-off variant 1) | 23 nM | 21.8 nM |  | 
ACAAGCUUGUAAUGAUUGAACAUGAGGAUCACCCAUGUAAAUGGAAGAACCAACUUGAUAUGAUUUACUCGUCUUAU [JR_STOV1_Sub011] (Eterna round: R97, puzzle: Sensor, turn-off variant 1) | 676 nM | 546 nM |  | 
ACAAGCUUUUUGUUCGUCUUAUAAUAAUAAAUAAAUAUAACAUGAGGAUCACCCAUGUUAAGAAGACGGCCUCAUGU [Sesor Array 21 - Jieux - Sensor v3, turn-off variant 2] (puzzle: Sensor v3, turn-off variant 2) |  |  | 174 nM | apparent KD of MS2 coat protein [1]: 82.2 nM; apparent KD of MS2 coat protein [3]: 71.8 nM
ACAAGCUUUUUGUUCGUCUUAUACACUCCUAAUAAGACAACAUGAGGAUCACCCAUGUAACAAAUAAGAACUCAUGU [Sesor Array 5 - Jieux - Sensor v3, turn-off variant 2] (puzzle: Sensor v3, turn-off variant 2) |  |  | 293 nM | apparent KD of MS2 coat protein [1]: 75 nM; apparent KD of MS2 coat protein [3]: 90.2 nM
